Assay: soluble on expression in E. coli; label from the status in PepcDB or PDB records
In the case of “MRNTLKAATLESKFPLLAVEADCIISKDADITAVFEVDLPELFTVTAAEYEAIHAAWAKAIKVLPNYTVVHKQDWFIREDYRSQTDKENLSFLSRSYEMHFNERPFLNHKCYLYLTKTTKERMRMQSSFSSLCRGFIIPKEVDKDTTAHFLDTVGQFARIVNDTGLVHLRRLVGDEITGTENKAGLVEKYFCLSMENTTALEDIELGDDGLRVGDKHVSVHTLSELDALPSKVGTDCRYERLSTDKSDCKLSFASPVGLLLSCNHLYNQYIFLDDSGENLQRFEKNARNMQSLSKYSRSNQINKEWIDLYLNDAHSFGLTSVRAHCNIIAWTDNPMEVKNMRNDVGSQIAMMECKPRHNTVDAATLYWAAIPGNGADFPAEESFYTFIEQALCFWVEETNYRSSVSPFGLKMSDRISGKPLHVDISDLPMKRGVTTNRNKFVLGGSGSGKSFFMNHLARQYYEQGTHVVLIDTGNSYQGLCSLIHQKSGGKDGIYFTYTDENPIAFNPFFTDDKVFDIEKRESIKTLILTLWKKDNEPATRSEEVALSNAVSLYIRRIKEDESIVPSFNTFYEFVKTDYRRILEEKEVREKDFDLAGFLNVLEPYYRGGEYDFLLNSDKQLDLLGKRFIVFEIDQIKDHPILFPVTTIIIMELFINKMRRLKGVRKMIIIEEAWL”, the “soluble on expression in E. coli” value is reported as “not soluble”.
In the case of “MGSDKIHHHHHHSDAGKDRRKKQKQKERQEDDDNNDEPAGGSEMGESGKAKDEKERTSVLEKQAGKKGDDESSSSEEDKEDEDEKKDNSTVIIREENEIIKAEKELDEEKVDQFRQSRVLRFTRSADEARVLPTDAAKFKRDTITQTLKSKELNDGVQLPLDKKPTATASTN”, the “soluble on expression in E. coli” value is reported as “not soluble”.
In the case of “MGNQYVKPERTGNSPYTRSGVPPPALVKTGDKPLHRVNDRMSLELHMADERVRAAGLSPAEREWRKKWVHDQHLHADEPVVVDAVHRQLNPIRTAYRLPWDKFYLHYLKPTFGVYYGTAIRVTAPKLLMAFVVVQTAYYYWKYEVKDWTHLRGLESMPQKEVIASAPAIEEKFPGLMDKGLANPSKDDYYTPTFNKRTAYLDVGETKRPW”, the “soluble on expression in E. coli” value is reported as “not soluble”.
With “MGSDKIHHHHHHMNKYNQLGSVRYNQLGRIKYNSRGAREVKPLFNRLAQARPVILDQNRRRLAILENADNIILEQEINGIDQVTFTLPWKDEKRKYLVNENLVQLVNSIYIIRRVSVKRSGLSPAEIEVYAEALWYDLQFAEPVEHARWESATPEVIMKDILDGTGWRVGKVTITRERTLELEAGFTNRLKALYELPSLFGGELHFNTDTMTVDFTEPVGRKSGAAIAYSKNLEEVEAIYDTEELVTKLYLYGKNNMSIADANDGVPYLTDFSFTDKVRVRVTKDERFTNPYHLKERGEEALKVLARPRSSYVLRAADLSALSGMSHEEFFLGDEVLVYDKELGINVRTRIVSWKYNVIQPWNTELQLESKQPSLSDLLTGIQEGAEFLYSEDAVERDEMLNLHVFNYLMNSRGDDGFNYWTNDGWELDAENGYSGNASFRATAQPGVKKSLRQTIYPAHRDSYSLSLRVATENLRVGNGRVGVYVKFKYQDGTEEEPIWIPLSEDE” the “soluble on expression in E. coli” value was “not soluble”.
In the case of “MRGSHHHHHHGSACCASRDDWRCARSMHEFSAKDIDGHMVNLDKYRGFVCIVTNVASQCGKTEVNYTQLVDLHARYAECGLRILAFPCNQFGKQEPGSNEEIKEFAAGYNVKFDMFSKICVNGDDAHPLWKWMKIQPKGKGILGNAIKWNFTKFLIDKNGCVVKRYGPMEEPLVIEKDLPHYF”, the “soluble on expression in E. coli” value is reported as “soluble”.
For “MSLKFHSPYLPLIKLIIVVKTPLELITDNLLPTIKVLIAKKLRELGMSQNRIAILLGVTQPAVKQYLDEDENFQYEKLRELGLKDEEIEDITQDLVNILNKNDTKSAMYYITDIGLRYLSELKFCKFHKENDKYIPQDCDICRYIYRQNEEERMEIALSMLQNEFVTPLIPEVLSNLAFARKNPKGINDVLAVEGRITKVKGIPTPASNPSWGSSKHLATILLKIMQKDPSIRSIMNIKYDKKIDEALHFLNFRIVYVGPSDENDDESISNLIYSAFYSGIDCVVHLGGKGLEPITYVLGKDPVEVVKKVIEIGKKYRELTENEGHHHHHH”, the “soluble on expression in E. coli” value was “soluble”.
For “MSLARRHELSIALILQDKFTIAAFSGFIDALRLAADDAAKSRQIRVAWKVFAQHRSPVMASCGLRVATEDGLPVPEDYDYIAICGGNSFADAAPAPQLAQLIQRAHRARVGLLGICTGSFAIARAGLIGDRRFCIHWNVAEPFKALFPRAQISVDRIFIDEGDVITCAGSTAAIDLALYLVMRHCGQDRAQQVMRHMMLSQMRPATMPQAHFYQLPPGDSHPRLRRALHFMEQQLDHPPSVGAIARYCGVSVRQLERIFLQALGQTPNAAFRQMRLNYGRYLLSAGTLPVTEIAHIAGFSDAAHFSREFRRAFHETPSAHRRARSHGPDEGHHHHHH”, the “soluble on expression in E. coli” value was “soluble”.
With “SFRMLSSSFEDDPFFADSFLAHRESMRNMMRSFSEPLGRDLLSISDGRGRTHNRRERDDGEDSLTATSFSLVPFGRFGGMHADVNPFQTMDRMMANMRSGIQELQRNFGQLSMDPNGHSFCSSSVMTYSKVGDEPPKVFQASTQTRRAPGGVKETRKAMRDSDSGLERMAVGHHIHDRGHVIRKSKNNKTGDEEVNQEFINMNESDAHAFDDEWQNEVLKYKSIGRSGNTGMRSVGHEHPGSRELKRREKIHRNSAIESGRRSNVFVDKLNVKGSPVKITKK” the “soluble on expression in E. coli” value was “soluble”.
In the case of “MGSDKIHHHHHHMLSCHLTSPNLVPCETVDNRSSFQILFDHESIIKTYVPVMKLRFRQLQAFHAIVETGTVTGAAGLLGISQPGVSNLLSQLEDQAGMALFERLHGRLLPTPEAELLFAEVDTVMRGMSKVTQTMVDLKTRKLGQLQIASQHAMSFGFMPRLIARFASDRPELNISFQSQYSSKVQEWVWNGLFEIGVCEMPLLYDTLTVYPLYVETMLALHKDNPLARHEVLTPELLAGEPFIVMGQDHMTHRRLREAFQDAGVPLRTRVHSHLFKNLLSFVQEGMGVALLDRFMFDYDMQGDVITRPFRPTIRMDMCVITSKSRPMSQLGKEFLDLLLGELQHYSVEGRPLVPAERKRR”, the “soluble on expression in E. coli” value is reported as “not soluble”.
With “MSCSSSSMLFLVLIATTVLIAESRVFYNRFDGGLSSDRFMEQKRDGAEASYDYDANQVIRNTMKRNRQCLLNAGLSQGCDFSDLLHAQTQARKFMSFAGPGK” the “soluble on expression in E. coli” value was “not soluble”.
With “MGSDKIHHHHHHMSGFLAVKFPVKEASVADQQDFLGRFDAMSSKATATVIAHYSSSFTLASKLLSPKIRRDIEALYAMVRVADEVVDGAAAAAGCAPDAVAEILDNYERQVLLSLSVPFHTDPVIHAFGNTARKCGFEQAHIVAFFDSMRRDLSQTSYDPTQLDEYIYGSAEVIGLMCLKIFLQDSTASPQDRATMEHGARRLGAAFQKVNFLRDLAEDREGLGRSYLPVFTEEMRDEIVTDIREDLDAARLSIPLLPFGARTGVRAATDLYGCLVDNLESASLEDLKNGRIRVPSMKKASLATKAMWKEVFQK” the “soluble on expression in E. coli” value was “not soluble”.
With “MGSDKIHHHHHHMKGEETLKKALLNIGKESPFYYYVLLGVKLVPSKNTRNLKLSFSTTGDVMLLYNPEAIGKKPLRMVQALLIHEVMHIVLQHFRIKPKDERDRKIWDLAMDAAINQYIPELAAFGVPLDVLVKEGHTTDNDTLFVLPPEWMMFENAEMYHKWILEEMERLGRYDVEVVAEFRDNVDDHSGLFEEDVPVEMILDLTKDRTKKAFNLFGNTLPSGVRREVSLSLENPELDWKTLLRRFFGVSIKADRYTTPLRPNRRYDHLPGWRNEYLPRIAAVVDTSGSIVEKELNQFISELEKISNIAGEELWLVQVDKSVTSAMKYRSGKWKDLEIVGGGSTDLQPAIDYSERVLRSEGTVVFTDGHTDVPIARRRILFVLSRYHNEEFLKEARKMYGRDAVVVLS” the “soluble on expression in E. coli” value was “not soluble”.
With “MSTATRPSSSATTSVILENPVSQSQPTERLVLRLNRKKKKVSWKDGTVDNEFMQKKSSKKCCIFHKQKPFDEDDSEEEDDNNHHCDHNHEHSESGEASSSNDSKAVDMGHHHHHHSH” the “soluble on expression in E. coli” value was “soluble”.
In the case of “MKVALGGTFEPLHEGHKKLIDVAIKLGGRDITIGVTSDRMARARIRSVLPFAIRAENVKRYVMRKYGFEPEIVKITNPYGKTLDVDFEYLVVSPETYEMALKINQKREELGKRKITIVKVDWMMAEDGKPISSTRIKRGEIDRYGGII”, the “soluble on expression in E. coli” value is reported as “soluble”.

From the DeepSol protein solubility set
